Results reported in IntAct's records for PubMed 29892012.

B1: Keratin, type I cuticular Ha8 (Homo sapiens), O76015 (parent)
chain: MTSSYSSSSCPLGCTMAPGARNVSVSPIDIGCQPGAEANIAPMCLLANVAHANRVRVGSTPLGRPSLCLPPTCHTACPLPGTCHIPGNIGICGAYGENTLNGHEKETMQFLNDRLANYLEKVRQLEQENAELEATLLERSKCHESTVCPDYQSYFHTIEELQQKILCSKAENARLIVQIDNAKLAADDFRIKLESERSLRQLVEADKCGTQKLLDDATLAKADLEAQQESLKEEQLSLKSNHEQEVKILRSQLGEKLRIELDIEPTIDLNRVLGEMRAQYEAMLETNRQDVEQWFQAQSEGISLQDMSCSEELQCCQSEILELRCTVNALEVERQAQHTLKDCLQNSLCEAEDRFGTELAQMQSLISNVEEQLSEIRADLERQNQEYQVLLDVKTRLENEIATYRNLLESEDCKLPCNPCSTSPSCVTAPCAPRPSCGPCTTCGPTCGASTTGSRF
partner: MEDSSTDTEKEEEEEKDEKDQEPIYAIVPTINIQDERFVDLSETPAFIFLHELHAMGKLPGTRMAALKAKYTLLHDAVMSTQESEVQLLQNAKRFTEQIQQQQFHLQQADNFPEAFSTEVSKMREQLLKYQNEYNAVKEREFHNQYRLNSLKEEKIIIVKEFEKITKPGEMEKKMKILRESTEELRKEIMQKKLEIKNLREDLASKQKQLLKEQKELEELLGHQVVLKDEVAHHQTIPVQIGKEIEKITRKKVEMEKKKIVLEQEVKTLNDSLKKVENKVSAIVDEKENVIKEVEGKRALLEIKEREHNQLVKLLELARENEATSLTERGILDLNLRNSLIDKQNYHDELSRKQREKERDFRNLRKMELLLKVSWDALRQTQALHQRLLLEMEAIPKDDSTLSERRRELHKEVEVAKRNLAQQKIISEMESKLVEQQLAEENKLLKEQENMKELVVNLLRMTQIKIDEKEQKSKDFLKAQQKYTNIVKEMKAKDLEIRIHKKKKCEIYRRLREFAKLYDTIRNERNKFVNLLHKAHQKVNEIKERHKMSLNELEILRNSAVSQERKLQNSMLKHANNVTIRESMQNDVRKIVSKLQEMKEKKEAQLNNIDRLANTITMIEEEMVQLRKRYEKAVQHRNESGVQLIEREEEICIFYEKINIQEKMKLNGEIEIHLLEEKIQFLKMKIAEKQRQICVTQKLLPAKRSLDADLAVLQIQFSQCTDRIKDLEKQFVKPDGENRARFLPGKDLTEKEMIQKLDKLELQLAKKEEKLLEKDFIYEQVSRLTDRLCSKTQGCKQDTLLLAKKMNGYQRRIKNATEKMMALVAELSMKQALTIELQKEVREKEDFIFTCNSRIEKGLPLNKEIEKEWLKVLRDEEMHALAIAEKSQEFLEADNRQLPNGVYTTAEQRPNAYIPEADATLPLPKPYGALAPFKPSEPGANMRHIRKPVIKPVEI
B2: Keratin, type I cuticular Ha8 (Homo sapiens), O76015 (parent)
chain: B1 chain
partner: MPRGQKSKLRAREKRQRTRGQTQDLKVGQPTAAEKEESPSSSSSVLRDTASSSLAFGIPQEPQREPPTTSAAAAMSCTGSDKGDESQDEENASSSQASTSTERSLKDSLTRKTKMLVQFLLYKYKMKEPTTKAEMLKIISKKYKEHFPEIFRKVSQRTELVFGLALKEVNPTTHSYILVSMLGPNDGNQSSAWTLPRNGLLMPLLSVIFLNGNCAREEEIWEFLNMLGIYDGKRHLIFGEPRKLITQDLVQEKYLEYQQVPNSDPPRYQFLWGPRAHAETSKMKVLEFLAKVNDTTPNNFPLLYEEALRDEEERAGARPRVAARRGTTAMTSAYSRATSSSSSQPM
B3: Enhancer of mRNA-decapping protein 3 (Homo sapiens), Q96F86 (parent)
chain: MATDWLGSIVSINCGDSLGVYQGRVSAVDQVSQTISLTRPFHNGVKCLVPEVTFRAGDITELKILEIPGPGDNQHFGDLHQTELGPSGAGCQVGINQNGTGKFVKKPASSSSAPQNIPKRTDVKSQDVAVSPQQQQCSKSYVDRHMESLSQSKSFRRRHNSWSSSSRHPNQATPKKSGLKNGQMKNKDDECFGDDIEEIPDTDFDFEGNLALFDKAAVFEEIDTYERRSGTRSRGIPNERPTRYRHDENILESEPIVYRRIIVPHNVSKEFCTDSGLVVPSISYELHKKLLSVAEKHGLTLERRLEMTGVCASQMALTLLGGPNRLNPKNVHQRPTVALLCGPHVKGAQGISCGRHLANHDVQVILFLPNFVKMLESITNELSLFSKTQGQQVSSLKDLPTSPVDLVINCLDCPENVFLRDQPWYKAAVAWANQNRAPVLSIDPPVHEVEQGIDAKWSLALGLPLPLGEHAGRIYLCDIGIPQQVFQEVGINYHSPFGCKFVIPLHSA
B4: Keratin, type I cuticular Ha8 (Homo sapiens), O76015 (parent)
chain: B1 chain
partner: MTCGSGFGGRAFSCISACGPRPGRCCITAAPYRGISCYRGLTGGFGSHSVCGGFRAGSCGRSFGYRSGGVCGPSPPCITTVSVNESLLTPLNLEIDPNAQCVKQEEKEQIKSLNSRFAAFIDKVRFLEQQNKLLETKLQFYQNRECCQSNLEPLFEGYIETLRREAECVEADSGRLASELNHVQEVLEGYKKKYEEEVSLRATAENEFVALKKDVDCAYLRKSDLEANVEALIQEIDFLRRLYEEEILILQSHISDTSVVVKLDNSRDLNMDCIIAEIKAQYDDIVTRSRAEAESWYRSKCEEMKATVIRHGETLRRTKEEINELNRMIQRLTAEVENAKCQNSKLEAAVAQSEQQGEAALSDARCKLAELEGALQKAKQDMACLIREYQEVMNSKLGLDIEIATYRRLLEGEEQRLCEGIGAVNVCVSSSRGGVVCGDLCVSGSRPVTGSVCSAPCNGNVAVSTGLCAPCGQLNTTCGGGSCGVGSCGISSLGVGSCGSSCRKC
B5: Vesicle transport protein USE1 (Homo sapiens), Q9NZ43 (parent)
chain: MAASRLELNLVRLLSRCEAMAAEKRDPDEWRLEKYVGALEDMLQALKVHASKPASEVINEYSWKVDFLKGMLQAEKLTSSSEKALANQFLAPGRVPTTARERVPATKTVHLQSRARYTSEMRSELLGTDSAEPEMDVRKRTGVAGSQPVSEKQLAAELDLVLQRHQNLQEKLAEEMLGLARSLKTNTLAAQSVIKKDNQTLSHSLKMADQNLEKLKTESERLEQHTQKSVNWLLWAMLIIVCFIFISMILFIRIMPKLK
B6: Mothers against decapentaplegic homolog 4 (Homo sapiens), Q13485 (parent)
chain: MDNMSITNTPTSNDACLSIVHSLMCHRQGGESETFAKRAIESLVKKLKEKKDELDSLITAITTNGAHPSKCVTIQRTLDGRLQVAGRKGFPHVIYARLWRWPDLHKNELKHVKYCQYAFDLKCDSVCVNPYHYERVVSPGIDLSGLTLQSNAPSSMMVKDEYVHDFEGQPSLSTEGHSIQTIQHPPSNRASTETYSTPALLAPSESNATSTANFPNIPVASTSQPASILGGSHSEGLLQIASGPQPGQQQNGFTGQPATYHHNSTTTWTGSRTAPYTPNLPHHQNGHLQHHPPMPPHPGHYWPVHNELAFQPPISNHPAPEYWCSIAYFEMDVQVGETFKVPSSCPIVTVDGYVDPSGGDRFCLGQLSNVHRTEAIERARLHIGKGVQLECKGEGDVWVRCLSDHAVFVQSYYLDREAGRAPGDAVHKIYPSAYIKVFDLRQCHRQMQQQAATAQAAAAAQAAAVAGNIPGPGSVGGIAPAISLSAAAGIGVDDLRRLCILRMSFVKGWGPDYPRQSIKETPCWIEIHLHRALQLLDEVLHTMPIADPQPLD

Variants of: B1
Settings: with cc146_human CCDC146, Q8IYE0

Row | effect of a mutation on the interaction | Variant
1 | with no effect | D306A

Variants of: B1
Settings: with cc146_human CCDC146, Q8IYE0
Remark: another data set of the same source

Row | effect of a mutation on the interaction | Variant
2 | with no effect | N270K

Variants of: B2
Settings: with magb4_human MAGEB4, O15481

Row | effect of a mutation on the interaction | Variant
3 | with no effect | N270K

Variants of: B2
Settings: with magb4_human MAGEB4, O15481
Remark: another data set of the same source

Row | effect of a mutation on the interaction | Variant
4 | with no effect | D306A

Variants of: B3
Settings: with ddx6_human DDX6, P26196
Chain of ddx6_human DDX6, P26196 (P26196 whole entry): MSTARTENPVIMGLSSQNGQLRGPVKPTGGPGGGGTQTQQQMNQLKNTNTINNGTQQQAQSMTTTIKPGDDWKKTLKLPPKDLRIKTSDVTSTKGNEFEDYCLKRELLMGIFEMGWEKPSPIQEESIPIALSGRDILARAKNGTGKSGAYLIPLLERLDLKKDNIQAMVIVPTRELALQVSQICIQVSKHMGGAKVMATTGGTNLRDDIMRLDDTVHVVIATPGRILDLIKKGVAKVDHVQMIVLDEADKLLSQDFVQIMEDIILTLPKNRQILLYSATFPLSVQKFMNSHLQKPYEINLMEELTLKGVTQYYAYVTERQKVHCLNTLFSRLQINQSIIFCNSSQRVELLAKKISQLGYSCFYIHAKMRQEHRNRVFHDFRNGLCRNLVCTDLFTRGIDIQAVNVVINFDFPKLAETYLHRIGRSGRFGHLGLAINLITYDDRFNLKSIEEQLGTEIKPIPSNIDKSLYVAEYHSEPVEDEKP

Row | effect of a mutation on the interaction | Variant
5 | disrupting interaction strength | F213L

Variants of: B4
Settings: with krt81_human KRT81, Q14533

Row | effect of a mutation on the interaction | Variant
6 | with no effect | D306A

Variants of: B4
Settings: with krt81_human KRT81, Q14533
Remark: another data set of the same source

Row | effect of a mutation on the interaction | Variant
7 | with no effect | N270K

Variants of: B5
Settings: with bscl2_human BSCL2, Q96G97
Chain of bscl2_human BSCL2, Q96G97 (Q96G97 whole entry): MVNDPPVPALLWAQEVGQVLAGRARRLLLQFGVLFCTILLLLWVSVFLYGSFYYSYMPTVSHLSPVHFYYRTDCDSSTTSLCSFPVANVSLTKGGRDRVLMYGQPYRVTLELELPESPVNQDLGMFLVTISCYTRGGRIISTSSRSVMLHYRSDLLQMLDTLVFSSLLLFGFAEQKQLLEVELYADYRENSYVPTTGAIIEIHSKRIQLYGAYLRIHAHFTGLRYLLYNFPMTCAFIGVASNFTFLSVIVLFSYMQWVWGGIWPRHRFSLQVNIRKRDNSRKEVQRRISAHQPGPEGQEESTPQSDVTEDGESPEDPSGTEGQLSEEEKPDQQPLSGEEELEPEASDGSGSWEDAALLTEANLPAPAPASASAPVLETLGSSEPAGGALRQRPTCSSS

Row | effect of a mutation on the interaction | Variant
8 | with no effect | T217M

Variants of: B5
Settings: with creb3_human CREB3, O43889
Chain of creb3_human CREB3, O43889 (O43889 whole entry): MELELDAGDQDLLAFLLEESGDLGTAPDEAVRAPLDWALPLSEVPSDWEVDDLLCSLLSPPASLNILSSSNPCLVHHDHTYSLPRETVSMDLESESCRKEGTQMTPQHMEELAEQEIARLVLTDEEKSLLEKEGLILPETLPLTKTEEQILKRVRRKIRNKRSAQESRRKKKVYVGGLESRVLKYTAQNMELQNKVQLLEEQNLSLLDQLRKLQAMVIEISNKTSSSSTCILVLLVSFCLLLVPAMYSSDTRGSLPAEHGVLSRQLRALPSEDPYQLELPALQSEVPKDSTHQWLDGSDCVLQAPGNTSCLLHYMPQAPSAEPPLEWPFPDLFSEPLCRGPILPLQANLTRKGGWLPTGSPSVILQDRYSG

Row | effect of a mutation on the interaction | Variant
9 | with no effect | T217M

Variants of: B6
Settings: with ews_human EWSR1, Q01844
Chain of ews_human EWSR1, Q01844 (Q01844 whole entry): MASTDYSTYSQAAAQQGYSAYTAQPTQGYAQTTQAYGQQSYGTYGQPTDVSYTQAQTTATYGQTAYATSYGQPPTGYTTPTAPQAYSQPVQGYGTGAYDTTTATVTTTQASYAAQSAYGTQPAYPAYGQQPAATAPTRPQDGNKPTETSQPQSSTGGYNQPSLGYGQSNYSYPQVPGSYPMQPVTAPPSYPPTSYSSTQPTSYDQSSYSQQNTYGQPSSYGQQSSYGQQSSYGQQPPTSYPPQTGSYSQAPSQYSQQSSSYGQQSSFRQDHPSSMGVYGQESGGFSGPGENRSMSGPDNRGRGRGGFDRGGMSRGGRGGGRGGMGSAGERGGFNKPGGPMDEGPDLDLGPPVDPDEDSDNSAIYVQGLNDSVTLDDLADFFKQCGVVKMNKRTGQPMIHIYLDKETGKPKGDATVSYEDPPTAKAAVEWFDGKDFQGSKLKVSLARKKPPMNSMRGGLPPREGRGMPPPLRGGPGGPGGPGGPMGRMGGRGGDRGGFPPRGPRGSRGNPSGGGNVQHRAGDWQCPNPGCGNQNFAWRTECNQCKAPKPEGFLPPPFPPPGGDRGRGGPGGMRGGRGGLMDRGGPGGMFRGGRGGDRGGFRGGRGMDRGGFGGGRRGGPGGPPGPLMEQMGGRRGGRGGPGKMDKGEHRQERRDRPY

Row | effect of a mutation on the interaction | Variant
10 | disrupting interaction strength | I500V

Variants of: B6
Settings: with smad3_human SMAD3, P84022
Chain of smad3_human SMAD3, P84022 (P84022 whole entry, looked up): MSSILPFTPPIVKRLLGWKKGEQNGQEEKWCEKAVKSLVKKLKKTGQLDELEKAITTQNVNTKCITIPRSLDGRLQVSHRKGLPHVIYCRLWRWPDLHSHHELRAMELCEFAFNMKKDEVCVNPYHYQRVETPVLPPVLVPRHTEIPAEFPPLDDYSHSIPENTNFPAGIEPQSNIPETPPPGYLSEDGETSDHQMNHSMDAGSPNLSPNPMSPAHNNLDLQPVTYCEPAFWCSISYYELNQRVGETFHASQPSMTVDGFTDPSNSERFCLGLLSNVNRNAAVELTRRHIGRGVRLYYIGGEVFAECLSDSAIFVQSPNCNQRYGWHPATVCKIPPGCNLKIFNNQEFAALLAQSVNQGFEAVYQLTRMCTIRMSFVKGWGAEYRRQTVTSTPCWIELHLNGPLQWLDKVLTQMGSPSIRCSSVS

Row | effect of a mutation on the interaction | Variant
11 | with no effect | I500V
